Experimental data as given in US20160311887A1 (CAMBRIDGE ENTERPRISE, published 2016).
Where two headings read alike, the source gives them in different places.

Columns and labels:
fXa [1] = biological target: T1, fXa (UniProt P00742 41-179; P00742 235-488); assay: pseudo-first-order inhibition kinetics, residual chromogenic activity (S2222)
T1 construct: also called factor Xa
Description: (§1) The inhibition of APC was reduced but still considerable, especially for the variants of α₁AT and the PCI variants in the presence of heparin. However, the specificity of PCI and α₁AT Pitts is not limited to thrombin and APC. […] In order not to inhibit coagulation, our variants also need to be specific for APC over fXa. We therefore also determined the rate constants of inhibition of PCI and α₁AT and their variants for fXa (Table 3). Rate constants were measured under pseudo-first-order conditions using an excess of serpin over protease. Serpin and protease were incubated together for varying lengths of time and the residual activity determined by adding an excess of chromogenic substrate (S2222) for the protease. Plots of residual protease activity over time gave the observed rate constant kobs. The second-order rate constant, k₂, is the slope of the plot of kobs versus serpin concentration (fitted using a linear regression model). Standard errors of the slope are shown (Table 3).

[2] = biological target: T2, activated Protein C (APC) (human, UniProt P04070 43-197; P04070 212-461); assay: pseudo-first-order inhibition kinetics, residual chromogenic activity
T2 construct: also called human plasma APC
Description: (§2) Rate constants of thrombin and APC inhibition were measured under pseudo-first-order conditions using an excess of serpin over protease (Table 1). Serpin and protease were incubated together for varying lengths of time and the residual activity was determined by adding an excess of chromogenic substrate for the protease (S2238 for thrombin and […] for APC). Residual protease activity was then measured by following the absorbance at 405 nm. Plots of residual protease activity over time gave the observed rate constant kobs. The second-order rate constant, ₖ₂, is the slope of the plot of kobs versus serpin concentration (fitted using a linear regression model). Standard errors of the slope are shown.

thrombin [3] = biological target: T3, thrombin (UniProt P00734 328-622); assay: as above
Description: as §2

[4] = biological target: T2, activated Protein C (APC); assay: ratio of rate constants, APC over thrombin
Description: as §2

[5] = biological target: T2, activated Protein C (APC); assay: ratio of rate constants, APC over fXa
Description: as §1

TF:fVIIa = TF:fVIIa (UniProt P13726 33-295; P08709 61-466, limits assumed); assay: cell-based or functional assay
[6] = biological target: T2, activated Protein C (APC); assay: ratio of rate constants, APC over fXa; remark: listed apart in the source
[7] = biological target: T2, activated Protein C (APC); assay: pseudo-first-order inhibition kinetics, residual chromogenic activity; remark: listed apart in the source
thrombin [8] = biological target: T3, thrombin; assay: as above; remark: listed apart in the source
[9] = biological target: T2, activated Protein C (APC); assay: ratio of rate constants, APC over thrombin; remark: listed apart in the source
fXa [10] = biological target: T1, fXa; assay: pseudo-first-order inhibition kinetics, residual chromogenic activity (S2222); remark: listed apart in the source
[11] = biological target: T2, activated Protein C (APC); assay: ratio of rate constants, APC over thrombin; remark: listed apart in the source
Description: Standard errors are shown.
(§3) Preliminary second-order rate constants for the inhibition of thrombin and APC by random mutagenesis PCI variants were measured under pseudo first-order conditions using an excess of serpin over protease. Serpin and protease were incubated together for varying lengths of time and the residual activity determined by adding an excess of chromogenic substrate for the protease. Plots of residual protease activity over time gave the observed rate constant kobs. The second-order rate constant, k₂, is the slope of the plot of kobs versus serpin concentration (fitted using a linear regression model). WT and P2KP1′K are shown for comparison. The error shown is the standard error of the slope.

[12] = biological target: T2, activated Protein C (APC); assay: preliminary pseudo-first-order inhibition kinetics, residual chromogenic activity
Description: as §3

thrombin [13] = biological target: T3, thrombin; assay: as above
Description: as §3

T1 sequence (P00742 41-179 limits assumed, form in doubt, chain 1 of 2): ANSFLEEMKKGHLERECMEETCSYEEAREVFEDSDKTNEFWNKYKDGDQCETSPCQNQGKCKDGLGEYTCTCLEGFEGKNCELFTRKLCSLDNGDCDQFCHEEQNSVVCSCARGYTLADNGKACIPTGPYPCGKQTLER
T1 sequence (P00742 235-488 limits assumed, form in doubt, chain 2 of 2): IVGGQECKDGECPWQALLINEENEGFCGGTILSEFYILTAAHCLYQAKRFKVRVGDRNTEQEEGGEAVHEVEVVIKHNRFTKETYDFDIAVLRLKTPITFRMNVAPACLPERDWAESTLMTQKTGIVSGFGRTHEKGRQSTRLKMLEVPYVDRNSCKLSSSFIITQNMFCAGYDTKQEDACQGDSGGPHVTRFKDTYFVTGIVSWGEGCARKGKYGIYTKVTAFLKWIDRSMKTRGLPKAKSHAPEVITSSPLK
T2 sequence (P04070 43-197, chain 1 of 2): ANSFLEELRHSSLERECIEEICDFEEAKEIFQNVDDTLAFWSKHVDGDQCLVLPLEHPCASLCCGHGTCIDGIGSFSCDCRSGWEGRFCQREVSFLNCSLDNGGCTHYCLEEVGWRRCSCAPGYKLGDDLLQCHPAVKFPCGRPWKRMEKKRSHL
T2 sequence (P04070 212-461, chain 2 of 2): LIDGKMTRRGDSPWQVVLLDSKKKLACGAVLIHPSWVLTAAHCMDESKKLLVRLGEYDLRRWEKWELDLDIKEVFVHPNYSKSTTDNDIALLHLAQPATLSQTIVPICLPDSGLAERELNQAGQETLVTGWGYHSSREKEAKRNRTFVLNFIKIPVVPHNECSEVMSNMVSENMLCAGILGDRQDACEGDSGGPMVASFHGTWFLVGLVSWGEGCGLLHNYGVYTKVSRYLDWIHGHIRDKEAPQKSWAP
TF:fVIIa, sequence (P13726 33-295 limits assumed, chain 1 of 2): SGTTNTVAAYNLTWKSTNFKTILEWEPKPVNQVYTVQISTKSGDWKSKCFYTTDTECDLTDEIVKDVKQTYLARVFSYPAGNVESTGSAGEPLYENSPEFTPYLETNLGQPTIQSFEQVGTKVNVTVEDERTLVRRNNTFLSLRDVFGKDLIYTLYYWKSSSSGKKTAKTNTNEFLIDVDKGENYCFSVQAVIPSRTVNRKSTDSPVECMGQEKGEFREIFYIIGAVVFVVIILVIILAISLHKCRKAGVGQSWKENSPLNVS
TF:fVIIa, sequence (P08709 61-466 limits assumed, chain 2 of 2): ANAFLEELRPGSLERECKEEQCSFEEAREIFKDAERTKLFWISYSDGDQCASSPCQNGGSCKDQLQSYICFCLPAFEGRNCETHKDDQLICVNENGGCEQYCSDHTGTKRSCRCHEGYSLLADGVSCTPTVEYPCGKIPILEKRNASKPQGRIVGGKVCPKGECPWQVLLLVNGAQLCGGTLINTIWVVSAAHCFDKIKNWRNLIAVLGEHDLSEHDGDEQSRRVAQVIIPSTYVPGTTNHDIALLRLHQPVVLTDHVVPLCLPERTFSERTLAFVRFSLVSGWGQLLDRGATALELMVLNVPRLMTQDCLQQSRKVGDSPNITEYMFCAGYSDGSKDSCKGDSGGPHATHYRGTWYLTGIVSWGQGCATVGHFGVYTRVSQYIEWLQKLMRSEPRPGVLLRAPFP

B1: FL α1AT Pitts C232S P2K (other)
chain: SDPQGDAAQKTDTSHHDQDHPTFNKITPNLAEFAFSLYRQLAHQSNSTNIFFSPVSIATAFAMLSLGTKADTHDEILEGLNFNLTEIPEAQIHEGFQELLRTLNQPDSQLQLTTGNGLFLSEGLKLVDKFLEDVKKLYHSEAFTVNFGDTEEAKKQINDYVEKGTQGKIVDLVKELDRDTVFALVNYIFFKGKWERPFEVKDTEEEDFHVDQVTTVKVPMMKRLGMFNIQHSKKLSSWVLLMKYLGNATAIFFLPDEGKLQHLENELTHDIITKFLENEDRRSASLHLPKLSITGTYDLKSVLGQLGITKVFSNGADLSGVTEEAPLKLSKAVHKAVLTIDEKGTEAAGAMFLEAIKRSIPPEVKFNKPFVFLMIEQNTKSPLFMGKVVNPTQK
notes: E. coli, SUMO tag removed; also called P2K α1AT Pitts; P2.G11
In the case of B1, the “second-order rate constant of inhibition” value (fXa [1]) is reported as 3930 M⁻¹ s⁻¹, the “second-order rate constant of inhibition” value [2] is reported as 64800 M⁻¹ s⁻¹ and the “second-order rate constant of inhibition” value (thrombin [3]) is reported as 51 M⁻¹ s⁻¹. The “fold inhibition APC/thrombin” value [4] was 1270 fold and the “fold inhibition APC/fXa” value [5] was 16.5 fold.

B2: FL α1AT Pitts C232S P2QP1′K (other)
chain: SDPQGDAAQKTDTSHHDQDHPTFNKITPNLAEFAFSLYRQLAHQSNSTNIFFSPVSIATAFAMLSLGTKADTHDEILEGLNFNLTEIPEAQIHEGFQELLRTLNQPDSQLQLTTGNGLFLSEGLKLVDKFLEDVKKLYHSEAFTVNFGDTEEAKKQINDYVEKGTQGKIVDLVKELDRDTVFALVNYIFFKGKWERPFEVKDTEEEDFHVDQVTTVKVPMMKRLGMFNIQHSKKLSSWVLLMKYLGNATAIFFLPDEGKLQHLENELTHDIITKFLENEDRRSASLHLPKLSITGTYDLKSVLGQLGITKVFSNGADLSGVTEEAPLKLSKAVHKAVLTIDEKGTEAAGAMFLEAIQRKIPPEVKFNKPFVFLMIEQNTKSPLFMGKVVNPTQK
notes: E. coli, purified; also called 4.G4
In the case of B2, the “PT (s), 5 µM serpin” value (TF:fVIIa) is reported as 27.9 s, the “inhibition of APC/fXa” value [6] is reported as 30.9 fold and the “second-order rate constant of inhibition” value [7] is reported as 33400 M⁻¹ s⁻¹. For the same binder, the “second-order rate constant of inhibition” value (thrombin [8]) was 3.8 M⁻¹ s⁻¹, the “inhibition of APC/thrombin” value [9] was 8790 fold and the “second-order rate constant of inhibition” value (fXa [10]) was 1080 M⁻¹ s⁻¹.

B3: FL α1AT Pitts C232S P1′K (other)
chain: SDPQGDAAQKTDTSHHDQDHPTFNKITPNLAEFAFSLYRQLAHQSNSTNIFFSPVSIATAFAMLSLGTKADTHDEILEGLNFNLTEIPEAQIHEGFQELLRTLNQPDSQLQLTTGNGLFLSEGLKLVDKFLEDVKKLYHSEAFTVNFGDTEEAKKQINDYVEKGTQGKIVDLVKELDRDTVFALVNYIFFKGKWERPFEVKDTEEEDFHVDQVTTVKVPMMKRLGMFNIQHSKKLSSWVLLMKYLGNATAIFFLPDEGKLQHLENELTHDIITKFLENEDRRSASLHLPKLSITGTYDLKSVLGQLGITKVFSNGADLSGVTEEAPLKLSKAVHKAVLTIDEKGTEAAGAMFLEAIPRKIPPEVKFNKPFVFLMIEQNTKSPLFMGKVVNPTQK
notes: E. coli, SUMO tag removed; also called P1′K α1AT Pitts; P1′.F9
With B3 the “second-order rate constant of inhibition” value (fXa [1]) was 4890 M⁻¹ s⁻¹, the “second-order rate constant of inhibition” value [2] was 95700 M⁻¹ s⁻¹ and the “second-order rate constant of inhibition” value (thrombin [3]) was 170 M⁻¹ s⁻¹. The “fold inhibition APC/thrombin” value [4] was 563 fold and the “fold inhibition APC/fXa” value [5] was 19.6 fold.

B4: A22 2.B10 PCI (P4SP2LP1′K) (other)
chain: APSSRRDFTFDLYRALASAAPSQNIFFSPVSISMSLAMLSLGAGSSTKMQILEGLGLNLQKSSEKELHRGFQQLLQELNQPRDGFQLSLGNALFTDLVVDLQDTFVSAMKTLYLADTFPTNFRDSAGAMKQINDYVAKQTKGKIVDLLKNLDSNAVVIMVNYIFFKAKWETSFNHKGTQEQDFYVTSETVVRVPMMSREDQYHYLLDRNLSCRVVGVPYQGNATALFILPSEGKMQQVENGLSEKTLRKWLKMFKKRQLELYLPKFSIEGSYQLEKVLPSLGISNVFTSHADLSGISNHSNIQVSEMVHKAVVEVDESGTRAAAATGTISTLRKARLNSQRLVFNRPFLMFIVDNNILFLGKVNRP
notes: As A22 WT PCI
B4 was tested, and the “inhibition of APC/thrombin” value [11] was 26.9 fold, the “second-order rate constant of inhibition” value [12] was 430 M⁻¹ s⁻¹ and the “second-order rate constant of inhibition” value (thrombin [13]) was 16 M⁻¹ s⁻¹.

B5: A22 D8 PCI (P4QP2RP1′N) (other)
chain: APSSRRDFTFDLYRALASAAPSQNIFFSPVSISMSLAMLSLGAGSSTKMQILEGLGLNLQKSSEKELHRGFQQLLQELNQPRDGFQLSLGNALFTDLVVDLQDTFVSAMKTLYLADTFPTNFRDSAGAMKQINDYVAKQTKGKIVDLLKNLDSNAVVIMVNYIFFKAKWETSFNHKGTQEQDFYVTSETVVRVPMMSREDQYHYLLDRNLSCRVVGVPYQGNATALFILPSEGKMQQVENGLSEKTLRKWLKMFKKRQLELYLPKFSIEGSYQLEKVLPSLGISNVFTSHADLSGISNHSNIQVSEMVHKAVVEVDESGTRAAAATGTIQTRRNARLNSQRLVFNRPFLMFIVDNNILFLGKVNRP
notes: As A22 WT PCI
B5 was tested, and the “inhibition of APC/thrombin” value [11] was 11.9 fold, the “second-order rate constant of inhibition” value [12] was 1000 M⁻¹ s⁻¹ and the “second-order rate constant of inhibition” value (thrombin [13]) was 84 M⁻¹ s⁻¹.

B6: A22 4.H11 PCI (P4KP2RP1′H) (other)
chain: APSSRRDFTFDLYRALASAAPSQNIFFSPVSISMSLAMLSLGAGSSTKMQILEGLGLNLQKSSEKELHRGFQQLLQELNQPRDGFQLSLGNALFTDLVVDLQDTFVSAMKTLYLADTFPTNFRDSAGAMKQINDYVAKQTKGKIVDLLKNLDSNAVVIMVNYIFFKAKWETSFNHKGTQEQDFYVTSETVVRVPMMSREDQYHYLLDRNLSCRVVGVPYQGNATALFILPSEGKMQQVENGLSEKTLRKWLKMFKKRQLELYLPKFSIEGSYQLEKVLPSLGISNVFTSHADLSGISNHSNIQVSEMVHKAVVEVDESGTRAAAATGTIKTRRHARLNSQRLVFNRPFLMFIVDNNILFLGKVNRP
notes: As A22 WT PCI
In the case of B6, the “inhibition of APC/thrombin” value [11] is reported as 21.4 fold, the “second-order rate constant of inhibition” value [12] is reported as 450 M⁻¹ s⁻¹ and the “second-order rate constant of inhibition” value (thrombin [13]) is reported as 21 M⁻¹ s⁻¹.

B7: A22 5.E12 PCI (P4HP2RP1′V) (other)
chain: APSSRRDFTFDLYRALASAAPSQNIFFSPVSISMSLAMLSLGAGSSTKMQILEGLGLNLQKSSEKELHRGFQQLLQELNQPRDGFQLSLGNALFTDLVVDLQDTFVSAMKTLYLADTFPTNFRDSAGAMKQINDYVAKQTKGKIVDLLKNLDSNAVVIMVNYIFFKAKWETSFNHKGTQEQDFYVTSETVVRVPMMSREDQYHYLLDRNLSCRVVGVPYQGNATALFILPSEGKMQQVENGLSEKTLRKWLKMFKKRQLELYLPKFSIEGSYQLEKVLPSLGISNVFTSHADLSGISNHSNIQVSEMVHKAVVEVDESGTRAAAATGTIHTRRVARLNSQRLVFNRPFLMFIVDNNILFLGKVNRP
notes: As A22 WT PCI
In the case of B7, the “inhibition of APC/thrombin” value [11] is reported as 11.3 fold, the “second-order rate constant of inhibition” value [12] is reported as 260 M⁻¹ s⁻¹ and the “second-order rate constant of inhibition” value (thrombin [13]) is reported as 23 M⁻¹ s⁻¹.
